According to IntAct's records for PubMed 35512704:

B1: Speckle-type POZ protein (Homo sapiens), O43791 (parent)
chain: MSRVPSPPPPAEMSSGPVAESWCYTQIKVVKFSYMWTINNFSFCREEMGEVIKSSTFSSGANDKLKWCLRVNPKGLDEESKDYLSLYLLLVSCPKSEVRAKFKFSILNAKGEETKAMESQRAYRFVQGKDWGFKKFIRRDFLLDEANGLLPDDKLTLFCEVSVVQDSVNISGQNTMNMVKVPECRLADELGGLWENSRFTDCCLCVAGQEFQAHKAILAARSPVFSAMFEHEMEESKKNRVEINDVEPEVFKEMMCFIYTGKAPNLDKMADDLLAAADKYALERLKVMCEDALCSNLSVENAAEILILADLHSADQLKTQAVDFINYHASDVLETSGWKSMVVSHPHLVAEAYRSLASAQCPFLGPPRKRLKQS

Variants of: B1
Settings: with kdm5a_human KDM5A

Row | effect of a mutation on the interaction | Variant
1 | with no effect | F102C

Variants of: B1
Settings: with kdm5c_human KDM5C

Row | effect of a mutation on the interaction | Variant
2 | with no effect | F102C

Variants of: B1
Settings: with kdm6a_human KDM6A

Row | effect of a mutation on the interaction | Variant
3 | with no effect | F102C

Variants of: B1
Settings: with vgfr2_human KDR

Row | effect of a mutation on the interaction | Variant
4 | with no effect | F102C

Variants of: B1
Settings: with lims1_human LIMS1, P48059
Sequence of lims1_human LIMS1, P48059 (P48059 whole entry): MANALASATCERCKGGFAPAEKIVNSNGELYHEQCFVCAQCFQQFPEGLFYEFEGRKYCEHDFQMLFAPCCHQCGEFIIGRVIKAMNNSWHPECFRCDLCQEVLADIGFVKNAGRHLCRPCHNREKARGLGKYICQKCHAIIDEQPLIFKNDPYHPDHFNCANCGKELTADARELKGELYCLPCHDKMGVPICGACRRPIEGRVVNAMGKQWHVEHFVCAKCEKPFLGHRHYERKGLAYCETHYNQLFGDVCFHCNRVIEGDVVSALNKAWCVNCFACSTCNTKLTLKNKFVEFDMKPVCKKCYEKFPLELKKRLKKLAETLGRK

Row | effect of a mutation on the interaction | Variant
5 | with no effect | F102C

Variants of: B1
Settings: with maga6_human MAGEA6, P43360

Row | effect of a mutation on the interaction | Variant
6 | with no effect | F102C

Variants of: B1
Settings: with m3k1_human MAP3K1, Q13233
Sequence of m3k1_human MAP3K1, Q13233 (Q13233 whole entry): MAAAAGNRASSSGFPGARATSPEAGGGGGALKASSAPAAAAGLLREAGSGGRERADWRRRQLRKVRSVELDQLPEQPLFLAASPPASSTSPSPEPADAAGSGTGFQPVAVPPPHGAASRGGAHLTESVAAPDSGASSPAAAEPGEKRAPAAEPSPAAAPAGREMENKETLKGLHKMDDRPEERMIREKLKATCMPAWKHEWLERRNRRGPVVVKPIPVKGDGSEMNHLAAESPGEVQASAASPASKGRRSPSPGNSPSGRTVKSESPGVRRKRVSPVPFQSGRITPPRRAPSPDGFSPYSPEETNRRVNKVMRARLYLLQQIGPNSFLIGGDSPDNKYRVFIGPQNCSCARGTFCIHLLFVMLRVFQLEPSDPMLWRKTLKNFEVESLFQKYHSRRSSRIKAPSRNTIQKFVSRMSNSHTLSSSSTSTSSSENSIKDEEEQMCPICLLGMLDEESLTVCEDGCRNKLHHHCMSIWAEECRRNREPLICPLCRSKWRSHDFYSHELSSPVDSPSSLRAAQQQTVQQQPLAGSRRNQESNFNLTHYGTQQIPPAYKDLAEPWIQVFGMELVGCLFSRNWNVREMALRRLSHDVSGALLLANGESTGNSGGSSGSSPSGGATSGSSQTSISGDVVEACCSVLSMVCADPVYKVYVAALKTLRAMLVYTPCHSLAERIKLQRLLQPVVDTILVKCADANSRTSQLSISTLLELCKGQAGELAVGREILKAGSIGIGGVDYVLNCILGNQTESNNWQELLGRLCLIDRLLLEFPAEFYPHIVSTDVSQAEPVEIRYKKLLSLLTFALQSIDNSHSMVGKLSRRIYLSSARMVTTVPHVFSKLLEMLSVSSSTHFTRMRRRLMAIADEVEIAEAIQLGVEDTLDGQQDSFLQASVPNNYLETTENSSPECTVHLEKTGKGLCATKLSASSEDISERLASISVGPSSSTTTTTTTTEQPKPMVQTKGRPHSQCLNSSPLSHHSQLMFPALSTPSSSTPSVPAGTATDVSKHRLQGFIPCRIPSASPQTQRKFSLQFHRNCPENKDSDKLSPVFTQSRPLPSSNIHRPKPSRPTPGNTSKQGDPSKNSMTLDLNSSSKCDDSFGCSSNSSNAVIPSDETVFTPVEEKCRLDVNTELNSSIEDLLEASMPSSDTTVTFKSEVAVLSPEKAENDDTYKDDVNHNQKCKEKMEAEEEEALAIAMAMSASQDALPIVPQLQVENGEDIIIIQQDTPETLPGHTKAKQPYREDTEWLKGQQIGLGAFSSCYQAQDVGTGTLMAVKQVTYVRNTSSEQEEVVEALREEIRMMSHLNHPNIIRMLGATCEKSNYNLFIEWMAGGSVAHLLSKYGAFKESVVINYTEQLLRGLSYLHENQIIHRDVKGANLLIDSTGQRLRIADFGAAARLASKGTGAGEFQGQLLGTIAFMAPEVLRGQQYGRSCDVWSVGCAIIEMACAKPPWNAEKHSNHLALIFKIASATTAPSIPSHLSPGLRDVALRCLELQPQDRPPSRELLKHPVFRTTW

Row | effect of a mutation on the interaction | Variant
7 | with no effect | F102C

Variants of: B1
Settings: with mk10_human MAPK10, P53779

Row | effect of a mutation on the interaction | Variant
8 | with no effect | F102C

Variants of: B1
Settings: with mk14_human MAPK14, Q16539

Row | effect of a mutation on the interaction | Variant
9 | with no effect | F102C

Variants of: B1
Settings: with mk03_human MAPK3, P27361

Row | effect of a mutation on the interaction | Variant
10 | with no effect | F102C

Variants of: B1
Settings: with mk04_human MAPK4, P31152
Sequence of mk04_human MAPK4, P31152 (P31152 whole entry): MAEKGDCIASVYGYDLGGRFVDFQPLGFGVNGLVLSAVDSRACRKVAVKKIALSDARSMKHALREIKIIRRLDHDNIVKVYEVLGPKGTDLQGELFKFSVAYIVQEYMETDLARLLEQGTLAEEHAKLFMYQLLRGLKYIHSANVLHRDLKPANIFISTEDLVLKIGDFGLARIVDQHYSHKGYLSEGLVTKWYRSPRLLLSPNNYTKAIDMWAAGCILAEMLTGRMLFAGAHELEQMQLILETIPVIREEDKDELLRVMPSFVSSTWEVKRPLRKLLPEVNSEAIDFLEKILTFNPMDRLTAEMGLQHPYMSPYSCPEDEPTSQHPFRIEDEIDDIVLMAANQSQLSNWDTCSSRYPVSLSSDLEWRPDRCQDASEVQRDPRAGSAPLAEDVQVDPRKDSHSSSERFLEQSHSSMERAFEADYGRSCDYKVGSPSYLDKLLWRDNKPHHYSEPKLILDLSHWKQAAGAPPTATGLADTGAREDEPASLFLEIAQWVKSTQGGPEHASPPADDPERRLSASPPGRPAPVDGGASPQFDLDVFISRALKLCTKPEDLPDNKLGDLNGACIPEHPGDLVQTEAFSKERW

Row | effect of a mutation on the interaction | Variant
11 | with no effect | F102C

Variants of: B1
Settings: with mk06_human MAPK6, Q16659

Row | effect of a mutation on the interaction | Variant
12 | with no effect | F102C

Variants of: B1
Settings: with sin1_human MAPKAP1, Q9BPZ7

Row | effect of a mutation on the interaction | Variant
13 | with no effect | F102C

Variants of: B1
Settings: with mcl1_human MCL1, Q07820

Row | effect of a mutation on the interaction | Variant
14 | with no effect | F102C

Variants of: B1
Settings: with mdm2_human MDM2, Q00987

Row | effect of a mutation on the interaction | Variant
15 | with no effect | F102C

Variants of: B1
Settings: with mef2a_human MEF2A

Row | effect of a mutation on the interaction | Variant
16 | with no effect | F102C

Variants of: B1
Settings: with mitf_human MITF

Row | effect of a mutation on the interaction | Variant
17 | with no effect | F102C

Variants of: B1
Settings: with mtor_human MTOR

Row | effect of a mutation on the interaction | Variant
18 | with no effect | F102C

Variants of: B1
Settings: with mybb_human MYBL2, P10244

Row | effect of a mutation on the interaction | Variant
19 | with no effect | F102C

Variants of: B1
Settings: with myc_human MYC

Row | effect of a mutation on the interaction | Variant
20 | with no effect | F102C

Variants of: B1
Settings: with mycn_human MYCN

Row | effect of a mutation on the interaction | Variant
21 | with no effect | F102C

Variants of: B1
Settings: with ncoa3_human NCOA3, Q9Y6Q9

Row | effect of a mutation on the interaction | Variant
22 | with no effect | F102C

Variants of: B1
Settings: with ikba_human NFKBIA

Row | effect of a mutation on the interaction | Variant
23 | with no effect | F102C

Variants of: B1
Settings: with nox1_human NOX1, Q9Y5S8
Sequence of nox1_human NOX1, Q9Y5S8 (Q9Y5S8 whole entry): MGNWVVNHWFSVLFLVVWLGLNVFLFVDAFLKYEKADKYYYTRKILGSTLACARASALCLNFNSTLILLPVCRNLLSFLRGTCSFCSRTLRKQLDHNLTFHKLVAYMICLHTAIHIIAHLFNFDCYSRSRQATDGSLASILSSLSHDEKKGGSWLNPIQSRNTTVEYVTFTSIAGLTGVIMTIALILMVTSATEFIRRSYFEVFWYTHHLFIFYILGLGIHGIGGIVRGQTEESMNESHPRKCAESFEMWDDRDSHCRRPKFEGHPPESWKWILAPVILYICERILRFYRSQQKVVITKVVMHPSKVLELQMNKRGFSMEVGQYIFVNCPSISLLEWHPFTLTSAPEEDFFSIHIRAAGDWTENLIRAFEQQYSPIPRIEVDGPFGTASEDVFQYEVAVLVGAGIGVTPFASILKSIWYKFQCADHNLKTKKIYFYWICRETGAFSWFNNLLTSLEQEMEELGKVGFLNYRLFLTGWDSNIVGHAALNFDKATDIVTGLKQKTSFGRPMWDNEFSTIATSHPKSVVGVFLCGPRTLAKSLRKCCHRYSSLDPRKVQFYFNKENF

Row | effect of a mutation on the interaction | Variant
24 | with no effect | F102C

Variants of: B1
Settings: with ntrk2_human NTRK2, Q16620

Row | effect of a mutation on the interaction | Variant
25 | with no effect | F102C

Variants of: B1
Settings: with ntrk3_human NTRK3, Q16288

Row | effect of a mutation on the interaction | Variant
26 | with no effect | F102C

Variants of: B1
Settings: with pak3_human PAK3, O75914

Row | effect of a mutation on the interaction | Variant
27 | with no effect | F102C

Variants of: B1
Settings: with prkn_human PRKN

Row | effect of a mutation on the interaction | Variant
28 | with no effect | F102C

Variants of: B1
Settings: with pcbp1_human PCBP1, Q15365

Row | effect of a mutation on the interaction | Variant
29 | with no effect | F102C

Variants of: B1
Settings: with pdcd1_human PDCD1, Q15116

Row | effect of a mutation on the interaction | Variant
30 | with no effect | F102C

Variants of: B1
Settings: with pgfrb_human PDGFRB

Row | effect of a mutation on the interaction | Variant
31 | with no effect | F102C

Variants of: B1
Settings: with pdk1_human PDK1, Q15118

Row | effect of a mutation on the interaction | Variant
32 | with no effect | F102C

Variants of: B1
Settings: with PIK3C2B

Row | effect of a mutation on the interaction | Variant
33 | with no effect | F102C

Variants of: B1
Settings: with pk3ca_human PIK3CA

Row | effect of a mutation on the interaction | Variant
34 | with no effect | F102C

Variants of: B1
Settings: with pk3cb_human PIK3CB

Row | effect of a mutation on the interaction | Variant
35 | with no effect | F102C

Variants of: B1
Settings: with pk3cg_human PIK3CG

Row | effect of a mutation on the interaction | Variant
36 | with no effect | F102C

Variants of: B1
Settings: with p85b_human PIK3R2, O00459

Row | effect of a mutation on the interaction | Variant
37 | with no effect | F102C

Variants of: B1
Settings: with dpod1_human POLD1, P28340

Row | effect of a mutation on the interaction | Variant
38 | with no effect | F102C

Variants of: B1
Settings: with dpoe1_human POLE

Row | effect of a mutation on the interaction | Variant
39 | with no effect | F102C

Variants of: B1
Settings: with ppard_human PPARD

Row | effect of a mutation on the interaction | Variant
40 | with no effect | F102C

Variants of: B1
Settings: with prdm1_human PRDM1, O75626

Row | effect of a mutation on the interaction | Variant
41 | with no effect | F102C

Variants of: B1
Settings: with prex2_human PREX2, Q70Z35

Row | effect of a mutation on the interaction | Variant
42 | with no effect | F102C

Variants of: B1
Settings: with aapk2_human PRKAA2, P54646

Row | effect of a mutation on the interaction | Variant
43 | with no effect | F102C

Variants of: B1
Settings: with prss8_human PRSS8, Q16651

Row | effect of a mutation on the interaction | Variant
44 | with no effect | F102C

Variants of: B1
Settings: with tf65_human RELA

Row | effect of a mutation on the interaction | Variant
45 | with no effect | F102C

Variants of: B1
Settings: with rictr_human RICTOR

Row | effect of a mutation on the interaction | Variant
46 | with no effect | F102C

Variants of: B1
Settings: with rnf43_human RNF43, Q68DV7

Row | effect of a mutation on the interaction | Variant
47 | with no effect | F102C

Variants of: B1
Settings: with ros1_human ROS1, P08922

Row | effect of a mutation on the interaction | Variant
48 | with no effect | F102C

Variants of: B1
Settings: with rl11_human RPL11, P62913

Row | effect of a mutation on the interaction | Variant
49 | with no effect | F102C

Variants of: B1
Settings: with rl5_human RPL5, P46777

Row | effect of a mutation on the interaction | Variant
50 | with no effect | F102C

Variants of: B1
Settings: with rs15_human RPS15, P62841

Row | effect of a mutation on the interaction | Variant
51 | with no effect | F102C

Variants of: B1
Settings: with rptor_human RPTOR

Row | effect of a mutation on the interaction | Variant
52 | with no effect | F102C

Variants of: B1
Settings: with rxra_human RXRA

Row | effect of a mutation on the interaction | Variant
53 | with no effect | F102C

Variants of: B1
Settings: with sdha_human SDHA

Row | effect of a mutation on the interaction | Variant
54 | with no effect | F102C

Variants of: B1
Settings: with setbp_human SETBP1, Q9Y6X0

Row | effect of a mutation on the interaction | Variant
55 | with no effect | F102C

Variants of: B1
Settings: with skp2_human SKP2, Q13309
Sequence of skp2_human SKP2, Q13309 (Q13309 whole entry): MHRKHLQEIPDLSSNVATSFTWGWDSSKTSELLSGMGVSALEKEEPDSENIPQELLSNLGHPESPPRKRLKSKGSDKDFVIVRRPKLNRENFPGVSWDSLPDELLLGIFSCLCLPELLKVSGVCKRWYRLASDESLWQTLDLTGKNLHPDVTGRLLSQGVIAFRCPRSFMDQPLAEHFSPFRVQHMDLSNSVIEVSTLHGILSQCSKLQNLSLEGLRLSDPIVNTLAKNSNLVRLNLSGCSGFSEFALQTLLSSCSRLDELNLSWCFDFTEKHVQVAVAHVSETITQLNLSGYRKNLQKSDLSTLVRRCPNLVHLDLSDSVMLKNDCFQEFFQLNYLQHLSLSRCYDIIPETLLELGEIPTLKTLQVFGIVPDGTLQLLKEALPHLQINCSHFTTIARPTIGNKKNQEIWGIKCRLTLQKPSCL

Row | effect of a mutation on the interaction | Variant
56 | with no effect | F102C

Variants of: B1
Settings: with smad1_human SMAD1, Q15797

Row | effect of a mutation on the interaction | Variant
57 | with no effect | F102C

Variants of: B1
Settings: with smca4_human SMARCA4, P51532

Row | effect of a mutation on the interaction | Variant
58 | with no effect | F102C

Variants of: B1
Settings: with snf5_human SMARCB1, Q12824

Row | effect of a mutation on the interaction | Variant
59 | with no effect | F102C

Variants of: B1
Settings: with smo_human SMO

Row | effect of a mutation on the interaction | Variant
60 | with no effect | F102C

Variants of: B1
Settings: with socs1_human SOCS1, O15524
Sequence of socs1_human SOCS1, O15524 (O15524 whole entry): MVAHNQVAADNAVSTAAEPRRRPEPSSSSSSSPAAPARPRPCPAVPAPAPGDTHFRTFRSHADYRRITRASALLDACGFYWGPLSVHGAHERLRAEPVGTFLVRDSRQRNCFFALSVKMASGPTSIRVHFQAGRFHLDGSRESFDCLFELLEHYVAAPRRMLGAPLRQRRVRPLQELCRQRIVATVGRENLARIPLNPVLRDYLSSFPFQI

Row | effect of a mutation on the interaction | Variant
61 | with no effect | F102C

Variants of: B1
Settings: with sox10_human SOX10, P56693

Row | effect of a mutation on the interaction | Variant
62 | with no effect | F102C

Variants of: B1
Settings: with sox2_human SOX2, P48431

Row | effect of a mutation on the interaction | Variant
63 | with no effect | F102C

Variants of: B1
Settings: with src_human SRC

Row | effect of a mutation on the interaction | Variant
64 | with no effect | F102C

Variants of: B1
Settings: with whr1_human WHR1, P49842

Row | effect of a mutation on the interaction | Variant
65 | with no effect | F102C

Variants of: B1
Settings: with stk38_human STK38, Q15208

Row | effect of a mutation on the interaction | Variant
66 | with no effect | F102C

Variants of: B1
Settings: with eloc_human ELOC

Row | effect of a mutation on the interaction | Variant
67 | with no effect | F102C

Variants of: B1
Settings: with tfe2_human TCF3, P15923
Sequence of tfe2_human TCF3, P15923 (P15923 whole entry): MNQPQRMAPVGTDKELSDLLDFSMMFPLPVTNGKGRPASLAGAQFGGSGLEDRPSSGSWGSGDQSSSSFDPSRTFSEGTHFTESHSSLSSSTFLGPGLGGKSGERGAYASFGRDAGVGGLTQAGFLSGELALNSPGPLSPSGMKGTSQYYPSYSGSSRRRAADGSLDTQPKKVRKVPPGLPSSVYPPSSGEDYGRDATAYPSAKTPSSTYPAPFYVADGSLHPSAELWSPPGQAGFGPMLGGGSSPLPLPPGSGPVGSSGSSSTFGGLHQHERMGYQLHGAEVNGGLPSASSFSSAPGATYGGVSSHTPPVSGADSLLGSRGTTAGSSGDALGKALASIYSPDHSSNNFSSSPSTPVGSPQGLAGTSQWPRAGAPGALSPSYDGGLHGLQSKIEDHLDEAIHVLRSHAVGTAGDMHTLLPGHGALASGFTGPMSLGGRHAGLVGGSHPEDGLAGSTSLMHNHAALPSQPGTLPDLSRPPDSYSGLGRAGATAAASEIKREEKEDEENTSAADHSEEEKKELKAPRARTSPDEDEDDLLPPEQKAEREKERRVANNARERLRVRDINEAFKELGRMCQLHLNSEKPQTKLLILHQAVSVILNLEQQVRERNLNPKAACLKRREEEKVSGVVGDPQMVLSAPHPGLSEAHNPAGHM

Row | effect of a mutation on the interaction | Variant
68 | with no effect | F102C

Variants of: B1
Settings: with tead1_human TEAD1, P28347
Sequence of tead1_human TEAD1, P28347 (P28347 whole entry): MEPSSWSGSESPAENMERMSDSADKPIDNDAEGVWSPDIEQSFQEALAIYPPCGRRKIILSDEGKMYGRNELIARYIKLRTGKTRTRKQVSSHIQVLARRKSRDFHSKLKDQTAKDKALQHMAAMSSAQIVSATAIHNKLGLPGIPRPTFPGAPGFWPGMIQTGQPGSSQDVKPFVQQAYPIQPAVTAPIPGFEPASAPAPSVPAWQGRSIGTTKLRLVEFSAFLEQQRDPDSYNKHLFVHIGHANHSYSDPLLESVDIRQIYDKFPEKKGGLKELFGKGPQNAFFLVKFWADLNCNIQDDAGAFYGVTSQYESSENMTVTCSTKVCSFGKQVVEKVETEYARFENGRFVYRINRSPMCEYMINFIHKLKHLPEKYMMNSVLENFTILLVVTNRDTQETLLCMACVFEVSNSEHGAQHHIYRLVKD

Row | effect of a mutation on the interaction | Variant
69 | with no effect | F102C

Variants of: B1
Settings: with tead3_human TEAD3, Q99594

Row | effect of a mutation on the interaction | Variant
70 | with no effect | F102C

Variants of: B1
Settings: with tead4_human TEAD4, Q15561

Row | effect of a mutation on the interaction | Variant
71 | with no effect | F102C

Variants of: B1
Settings: with tgfr2_human TGFBR2, P37173

Row | effect of a mutation on the interaction | Variant
72 | with no effect | F102C

Variants of: B1
Settings: with tnr14_human TNFRSF14, Q92956
Sequence of tnr14_human TNFRSF14, Q92956 (Q92956 whole entry): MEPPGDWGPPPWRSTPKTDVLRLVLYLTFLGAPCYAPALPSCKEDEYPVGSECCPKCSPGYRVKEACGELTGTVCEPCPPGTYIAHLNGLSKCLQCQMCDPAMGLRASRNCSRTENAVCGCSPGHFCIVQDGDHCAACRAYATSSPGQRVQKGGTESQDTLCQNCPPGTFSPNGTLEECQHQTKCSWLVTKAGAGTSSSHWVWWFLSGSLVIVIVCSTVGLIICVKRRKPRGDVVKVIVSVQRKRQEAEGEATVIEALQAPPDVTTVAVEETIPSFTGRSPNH

Row | effect of a mutation on the interaction | Variant
73 | with no effect | F102C

Variants of: B1
Settings: with tsc2_human TSC2, P49815

Row | effect of a mutation on the interaction | Variant
74 | with no effect | F102C

Variants of: B1
Settings: with tshr_human TSHR

Row | effect of a mutation on the interaction | Variant
75 | with no effect | F102C

Variants of: B1
Settings: with vegfa_human VEGFA

Row | effect of a mutation on the interaction | Variant
76 | with no effect | F102C

Variants of: B1
Settings: with vhl_human VHL

Row | effect of a mutation on the interaction | Variant
77 | with no effect | F102C

Variants of: B1
Settings: with wee1_human WEE1, P30291

Row | effect of a mutation on the interaction | Variant
78 | with no effect | F102C

Variants of: B1
Settings: with wwtr1_human WWTR1, Q9GZV5

Row | effect of a mutation on the interaction | Variant
79 | with no effect | F102C

Variants of: B1
Settings: with xpo1_human XPO1, O14980

Row | effect of a mutation on the interaction | Variant
80 | with no effect | F102C

Variants of: B1
Settings: with igf1r_human IGF1R

Row | effect of a mutation on the interaction | Variant
81 | causing an interaction | F102C

Variants of: B1
Settings: with etv1_human ETV1, P50549

Row | effect of a mutation on the interaction | Variant
82 | disrupting interaction strength | F102C

Variants of: B1
Settings: with pk3ca_human PIK3CA
Remark: another data set of the same source

Row | effect of a mutation on the interaction | Variant
83 | increasing interaction strength | F102C
